Laboratory results taken from patent publication US10221217.

Columns and labels:
[1] = target: c1d1_N386D displayed on yeast (S. cerevisiae); assay: Fab titration on yeast-displayed construct, flow cytometry
[2] = target: c1d1_v2 displayed on yeast (S. cerevisiae); assay: as above
[3] = target: c1d1_b10disulf displayed on yeast (S. cerevisiae); assay: as above
[4] = target: eOD_VH1-2_v6.0 (HIV-1 HxB2 (engineered)); assay: dissociation constant, SPR (FIG. 3)
[5] = target: eOD_VH1-2_v6.0 (HIV-1 HxB2 (engineered)); assay: SPR, IgG captured by anti-human IgG, eOD as analyte, 1:1 fit with mass transport
c1d1_N386D [6] = assay: ITC
c1d1_v2 [7] = assay: ITC
c1d1_b10disulf [8] = assay: ITC
[9] = target: ODml(N386) (Human immunodeficiency virus type 1 group M subtype B (isolate HXB2) (HIV-1)) (UniProt P04578); assay: SPR, IgG captured by anti-human IgG, construct as analyte
c2d1_b10disulf = assay: as above
c1d1_N386D [10] = assay: as above
c1d1_minglyc [11] = assay: as above
[12] = target: wild-type core GP120 (Human immunodeficiency virus type 1 group M subtype B (isolate HXB2) (HIV-1)) (UniProt P04578); assay: as above
c1d1_v2 [13] = assay: as above
eOD_VD(-)_g5 = assay: Kd, method not stated; construct from 293 cells
eOD_VD(-)_g7 = assay: Kd, method not stated; construct from 293 cells
eOD_VD(-)_g6 = assay: Kd, method not stated; construct from 293 cells
eOD_VD(-)_g8 = assay: Kd, method not stated; construct from 293 cells
eOD_VD(-)_g2 = assay: Kd, method not stated; construct from 293 cells
eOD_VD(-)_g4 = assay: Kd, method not stated; construct from 293 cells
eOD_VD(-)_g3 = assay: Kd, method not stated; construct from 293 cells
[14] = target: ODml(N386) (Human immunodeficiency virus type 1 group M subtype B (isolate HXB2) (HIV-1)) (UniProt P04578); assay: SPR (value differs from Table 1)
eOD_N276D_N463D [15] = assay: method not stated; protein from 293 cells
c1d1_N386D [16] = assay: SPR and ITC
c1d1_N386D [17] = assay: method not given
eOD_L260F = assay: method not stated
[18] = target: eOD_T257S_S375W (HIV-1 HxB2 (engineered)); assay: method not stated
eOD_L260F_N276D = assay: method not stated
eOD_T257S_L260F_S375W = assay: method not stated
eOD_N276D = assay: method not stated
[19] = target: ODml(d1_disulf) (Human immunodeficiency virus type 1 group M subtype B (isolate HXB2) (HIV-1)) (UniProt P04578); assay: SPR, IgG captured by anti-human IgG, construct as analyte
c1d1_b2021 [20] = assay: as above
[21] = target: OD(D386) (Human immunodeficiency virus type 1 group M subtype B (isolate HXB2) (HIV-1)) (UniProt P04578); assay: as above
c1d1_b10disulf [22] = assay: as above
[23] = target: ODml(D386) (Human immunodeficiency virus type 1 group M subtype B (isolate HXB2) (HIV-1)) (UniProt P04578); assay: as above
[24] = target: ODml(d1_disulf) (Human immunodeficiency virus type 1 group M subtype B (isolate HXB2) (HIV-1)) (UniProt P04578); assay: SPR
c1d1_b2021 [25] = assay: SPR
c1d1_N386D [26] = assay: SPR
c1d1_minglyc [27] = assay: SPR
c1d1_v2 [28] = assay: SPR
[29] = target: ODml(D386) (Human immunodeficiency virus type 1 group M subtype B (isolate HXB2) (HIV-1)) (UniProt P04578); assay: SPR
c1d1_N386D [30] = assay: ITC, b12 IgG
[31] = target: eOD_VH1-2_v6.0 (HIV-1 HxB2 (engineered)); assay: dissociation constant, method not stated
[32] = target: core_gp120_VH1-2_v2.0 (HIV-1 BaL (engineered)); assay: SPR
[33] = target: eOD_VH1-2_v1.0 (HIV-1 HxB2 (engineered)); assay: SPR
[34] = target: eOD_VH1-2_v6.0 (HIV-1 HxB2 (engineered)); assay: SPR, IgG captured by anti-human IgG, eOD as analyte, 1:1 kinetic fit
[35] = target: eOD_VH1-2_v4.0 (HIV-1 HxB2 (engineered)); assay: method not stated
eOD_N276D_N463D [36] = assay: method not stated
[37] = target: eOD_VH1-2_v6.0 (HIV-1 HxB2 (engineered)); assay: dissociation constant, SPR (FIG. 2)

VRC01 Fab
Kd [1]: > 50 nM | Kd [2]: > 50 nM | Kd [3]: > 50 nM

VRC01 IgG (mature) (antibody)
Kd [4]: 1.7 nM | Kd [5]: 1.7 nM | koff [5]: 0.000251 s⁻¹ | kon [5]: 148000 M⁻¹ s⁻¹ | Kd (c1d1_N386D [6]): 200 nM | Kd (c1d1_v2 [7]): 100 nM | Kd (c1d1_b10disulf [8]): 100 nM | fold improvement of KD over c1d1 N386D (c1d1_b10disulf [8]): 2 fold | Kd [9]: 298 nM | Kd (c2d1_b10disulf): 289 nM | Kd (c1d1_N386D [10]): 139 nM | Kd (c1d1_minglyc [11]): 7.5 nM | Kd [12]: 3.9 nM | Kd (c1d1_v2 [13]): 249 nM | Kd (eOD_VD(-)_g5): 15 nM | Kd (eOD_VD(-)_g7): 109 nM | Kd (eOD_VD(-)_g6): 4.6 nM | Kd (eOD_VD(-)_g8): 2.8 nM | Kd (eOD_VD(-)_g2): 7 nM | Kd (eOD_VD(-)_g4): 7.3 nM | Kd (eOD_VD(-)_g3): 4.7 nM | Kd [14]: 530 nM | Kd (eOD_N276D_N463D [15]): 4 nM | fold weaker KD than core gp120 (c1d1_N386D [16]): 35 to 50 fold | Kd (c1d1_N386D [17]): 80 nM | fold weaker affinity than core gp120 (c1d1_N386D [17]): > 10 fold | Kd (eOD_L260F): 14.3 nM | Kd [18]: 90 nM | Kd (eOD_L260F_N276D): 0.0119 µM | Kd (eOD_T257S_L260F_S375W): 8.6 nM | Kd (eOD_N276D): 0.0278 µM

b12 Fab
Kd [1]: 21 nM | Kd [2]: 11 nM

b12 IgG (antibody)
Kd [9]: 1900 nM | Kd [19]: 175 nM | Kd (c1d1_b2021 [20]): 120 nM | Kd (c2d1_b10disulf): 148 nM | Kd (c1d1_N386D [10]): 59 nM | Kd [21]: 1600 nM | Kd (c1d1_minglyc [11]): 31 nM | Kd [12]: 4.5 nM | Kd (c1d1_v2 [13]): 30 nM | Kd (c1d1_b10disulf [22]): 200 nM | Kd [23]: 530 nM | fold improvement of KD over OD(D386) [24]: 9 fold | fold improvement of KD over ODml [24]: 3 fold | Kd (c1d1_b2021 [25]): 148 nM | fold weaker KD than c1d1 N386D (c1d1_b2021 [25]): 2.5 fold | fold improvement of KD over OD(386) (c1d1_N386D [26]): 28 fold | fold improvement of KD over ODml (c1d1_N386D [26]): 9 fold | fold improvement of KD over c1d1 N386D (c1d1_minglyc [27]): 2 fold | fold improvement of KD over c1d1 N386D (c1d1_v2 [28]): 2 fold | fold improvement of KD over c1d1 b10disulf (c1d1_v2 [28]): 8 fold | fold improvement of KD over OD(D386) [29]: 3 fold | Kd (eOD_VD(-)_g5): 132 nM | Kd (eOD_VD(-)_g7): 421 nM | Kd (eOD_VD(-)_g6): 514 nM | Kd (eOD_VD(-)_g8): 7 nM | Kd (eOD_VD(-)_g2): 96 nM | Kd (eOD_VD(-)_g4): 76 nM | Kd (eOD_VD(-)_g3): 21.6 nM | Kd (c1d1_N386D [30]): 65 nM

germline NIH45-46 (antibody)
Kd [31]: 408 nM

germline VRC01 (antibody)
Kd [32]: 1600 nM | Kd [33]: 40 µM | Kd [34]: 43.6 nM | koff [34]: 0.000683 s⁻¹ | kon [34]: 15700 M⁻¹ s⁻¹ | Kd (eOD_L260F): > 500000 nM | Kd [35]: 100 nM | Kd (eOD_L260F_N276D): 149 µM | Kd (eOD_N276D): 640 µM | Kd (eOD_N276D_N463D [36]): 380 µM | Kd [37]: 44 nM

mature NIH45-46 (antibody)
Kd [31]: 3.8 nM
